Measurements from doi:10.1101/2021.10.29.466484, “Clamping of DNA shuts the condensin neck gate” (bioRxiv, 2021).

Experiments:
[1] = target: T1, Ycs4 (S. cerevisiae, UniProt Q06156 1-1176); experiment: cryo-EM structure; condensin pentamer with relaxed circular DNA, ADP and BeF3; VPP and non-VPP datasets merged; maps at 8.75 and 8.95 Å; details: both partners purified
T1 construct: Ycs4, HAWK subunit of budding yeast (S. cerevisiae) condensin, wild type
T1 sequence: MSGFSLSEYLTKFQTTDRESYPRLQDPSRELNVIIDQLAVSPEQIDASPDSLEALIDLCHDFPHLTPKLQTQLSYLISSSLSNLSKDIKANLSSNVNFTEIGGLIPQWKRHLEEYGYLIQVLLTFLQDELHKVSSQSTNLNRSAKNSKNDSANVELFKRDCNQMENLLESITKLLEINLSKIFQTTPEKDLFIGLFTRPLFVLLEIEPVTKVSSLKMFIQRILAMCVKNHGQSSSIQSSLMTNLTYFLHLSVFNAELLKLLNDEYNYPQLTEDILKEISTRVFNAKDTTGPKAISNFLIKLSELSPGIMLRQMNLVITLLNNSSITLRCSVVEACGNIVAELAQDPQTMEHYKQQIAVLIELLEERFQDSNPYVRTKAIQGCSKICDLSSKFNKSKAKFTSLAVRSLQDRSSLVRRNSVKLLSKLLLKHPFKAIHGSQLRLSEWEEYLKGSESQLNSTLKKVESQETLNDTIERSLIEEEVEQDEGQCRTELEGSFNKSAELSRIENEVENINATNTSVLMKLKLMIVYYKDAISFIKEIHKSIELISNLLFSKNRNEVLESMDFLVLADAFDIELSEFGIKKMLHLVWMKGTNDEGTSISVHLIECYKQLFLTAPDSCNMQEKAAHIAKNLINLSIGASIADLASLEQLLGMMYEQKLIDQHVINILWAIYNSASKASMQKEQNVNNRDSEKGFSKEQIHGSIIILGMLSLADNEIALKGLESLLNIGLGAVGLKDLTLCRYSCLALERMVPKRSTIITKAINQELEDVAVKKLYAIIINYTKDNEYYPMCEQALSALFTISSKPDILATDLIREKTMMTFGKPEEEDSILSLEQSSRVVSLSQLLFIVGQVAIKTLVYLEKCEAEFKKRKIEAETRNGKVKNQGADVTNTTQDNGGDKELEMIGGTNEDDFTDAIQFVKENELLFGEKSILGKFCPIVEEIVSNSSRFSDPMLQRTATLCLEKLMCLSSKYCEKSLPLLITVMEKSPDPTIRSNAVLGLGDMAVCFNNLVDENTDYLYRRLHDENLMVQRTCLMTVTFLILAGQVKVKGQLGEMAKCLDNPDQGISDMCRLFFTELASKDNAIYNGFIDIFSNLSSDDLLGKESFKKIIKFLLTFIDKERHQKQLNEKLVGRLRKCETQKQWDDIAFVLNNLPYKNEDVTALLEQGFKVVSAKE

[2] = target: T2, Smc2 (S. cerevisiae, UniProt P38989 1-1170); experiment: as above; details: both partners purified
T2 construct: Smc2, SMC subunit of budding yeast (S. cerevisiae) condensin, wild type; Expressed from pGAL10-SMC2 together with the other subunits; Only the head domain and proximal coiled coil are resolved in the maps
T2 sequence: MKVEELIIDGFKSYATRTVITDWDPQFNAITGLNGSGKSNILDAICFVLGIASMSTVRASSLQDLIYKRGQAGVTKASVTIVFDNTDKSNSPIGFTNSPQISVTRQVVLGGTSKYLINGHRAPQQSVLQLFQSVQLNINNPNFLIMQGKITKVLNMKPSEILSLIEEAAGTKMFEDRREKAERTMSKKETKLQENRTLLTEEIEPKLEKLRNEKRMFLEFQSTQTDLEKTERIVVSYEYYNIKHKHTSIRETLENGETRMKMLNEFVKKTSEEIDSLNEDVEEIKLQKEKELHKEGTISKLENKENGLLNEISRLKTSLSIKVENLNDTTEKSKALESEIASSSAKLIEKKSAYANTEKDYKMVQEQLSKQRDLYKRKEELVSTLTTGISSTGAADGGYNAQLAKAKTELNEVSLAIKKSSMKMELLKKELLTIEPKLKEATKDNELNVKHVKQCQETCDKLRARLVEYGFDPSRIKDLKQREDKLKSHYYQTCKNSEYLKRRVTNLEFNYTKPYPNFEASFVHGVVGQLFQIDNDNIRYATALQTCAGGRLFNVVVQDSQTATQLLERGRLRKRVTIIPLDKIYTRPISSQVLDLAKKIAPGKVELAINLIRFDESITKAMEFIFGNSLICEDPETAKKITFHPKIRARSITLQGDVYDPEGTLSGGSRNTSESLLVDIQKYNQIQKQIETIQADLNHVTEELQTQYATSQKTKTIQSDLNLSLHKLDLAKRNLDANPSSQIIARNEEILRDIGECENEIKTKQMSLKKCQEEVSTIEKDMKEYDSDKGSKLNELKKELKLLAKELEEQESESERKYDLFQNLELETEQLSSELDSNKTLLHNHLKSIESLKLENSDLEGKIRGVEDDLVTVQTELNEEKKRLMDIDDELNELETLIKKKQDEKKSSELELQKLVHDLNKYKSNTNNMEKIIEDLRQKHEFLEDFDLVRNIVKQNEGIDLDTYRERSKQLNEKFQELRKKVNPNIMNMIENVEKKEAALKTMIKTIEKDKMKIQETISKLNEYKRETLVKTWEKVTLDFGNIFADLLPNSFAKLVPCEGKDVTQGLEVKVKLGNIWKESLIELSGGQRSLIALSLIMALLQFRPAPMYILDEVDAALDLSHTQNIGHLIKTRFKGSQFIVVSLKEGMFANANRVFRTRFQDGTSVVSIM

binding result [1]: binds | binding result [2]: binds
B1: Brn1 (natural protein, S. cerevisiae)
chain: MTTQLRYENNDDDERVEYNLFTNRSTMMANFEEWIKMATDNKINSRNSWNFALIDYFYDLDVLKDGENNINFQKASATLDGCIKIYSSRVDSVTTETGKLLSGLAQRKTNGASNGDDSNGGNGEGLGGDSDEANIEIDPLTGMPISNDPDVNNTRRRVYNRVLETTLVEFETIKMKELDQELIIDPLFKKALVDFDEGGAKSLLLNTLNIDNTARVIFDASIKDTQNVGQGKLQRKEEELIERDSLVDDENEPSQSLISTRNDSTVNDSVISAPSMEDEILSLGMDFIKFDQIAVCEISGSIEQLRNVVEDINQAKDFIENVNNRFDNFLTEEELQAAVPDNAEDDSDGFDMGMQQELCYPDENHDNTSHDEQDDDNVNSTTGSIFEKDLMAYFDENLNRNWRGREHWKVRNFKKANLVNKESDLLEETRTTIGDTTDKNTTDDKSMDTKKKHKQKKVLEIDFFKTDDSFEDKVFASKGRTKIDMPIKNRKNDTHYLLPDDFHFSTDRITRLFIKPGQKMSLFSHRKHTRGDVSSGLFEKSTVSANHSNNDIPTIADEHFWADNYERKEQEEKEKEQSKEVGDVVGGALDNPFEDDMDGVDFNQAFEGTDDNEEASVKLDLQDDEDHKFPIRENKVTYSRVSKKVDVRRLKKNVWRSINNLIQEHDSRKNREQSSNDSETHTEDESTKELKFSDIIQGISKMYSDDTLKDISTSFCFICLLHLANEHGLQITHTENYNDLIVNYEDLATTQAAS
notes: Brn1, kleisin subunit of budding yeast (S. cerevisiae) condensin, wild type; also called kleisin Brn1; BRN1-HA3-His12
